Source: patent US20230383273

What was measured:
Test in all cases: cleavage_in_vitro
[1] = tested on: T1, OMNI-84 (Porphyrobacter donghaensis); conditions: PAM NNNNGCAA; TXTL
T1 sequence: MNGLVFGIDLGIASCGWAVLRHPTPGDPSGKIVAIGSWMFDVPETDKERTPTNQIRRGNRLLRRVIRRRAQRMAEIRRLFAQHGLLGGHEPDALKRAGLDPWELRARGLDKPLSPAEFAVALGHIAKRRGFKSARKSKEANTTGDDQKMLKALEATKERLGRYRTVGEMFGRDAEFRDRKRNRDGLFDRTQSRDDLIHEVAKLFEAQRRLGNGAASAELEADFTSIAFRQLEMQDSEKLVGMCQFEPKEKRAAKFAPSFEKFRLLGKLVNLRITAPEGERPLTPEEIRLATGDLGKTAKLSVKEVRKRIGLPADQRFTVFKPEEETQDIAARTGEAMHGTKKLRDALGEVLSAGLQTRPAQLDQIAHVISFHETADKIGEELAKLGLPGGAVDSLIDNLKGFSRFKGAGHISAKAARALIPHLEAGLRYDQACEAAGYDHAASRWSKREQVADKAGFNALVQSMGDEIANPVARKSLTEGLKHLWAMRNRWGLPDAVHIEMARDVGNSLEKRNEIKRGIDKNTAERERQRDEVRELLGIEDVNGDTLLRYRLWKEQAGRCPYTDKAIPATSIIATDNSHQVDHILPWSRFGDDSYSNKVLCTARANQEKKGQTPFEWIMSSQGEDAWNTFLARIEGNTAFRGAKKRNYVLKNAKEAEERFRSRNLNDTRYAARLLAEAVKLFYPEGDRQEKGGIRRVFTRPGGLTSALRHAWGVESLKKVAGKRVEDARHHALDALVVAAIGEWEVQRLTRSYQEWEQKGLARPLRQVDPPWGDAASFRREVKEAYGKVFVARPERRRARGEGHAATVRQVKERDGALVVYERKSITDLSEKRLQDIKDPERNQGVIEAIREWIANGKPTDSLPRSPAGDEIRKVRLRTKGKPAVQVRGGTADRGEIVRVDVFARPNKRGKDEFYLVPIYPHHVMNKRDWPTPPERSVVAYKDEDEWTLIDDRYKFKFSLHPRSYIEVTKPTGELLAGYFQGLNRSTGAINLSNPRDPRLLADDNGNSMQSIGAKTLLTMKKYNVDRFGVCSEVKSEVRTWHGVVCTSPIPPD

[2] = tested on: T2, OMNI-78 (Notoacmeibacter marinus); conditions: PAM NRRNAT; TXTL
T2 sequence: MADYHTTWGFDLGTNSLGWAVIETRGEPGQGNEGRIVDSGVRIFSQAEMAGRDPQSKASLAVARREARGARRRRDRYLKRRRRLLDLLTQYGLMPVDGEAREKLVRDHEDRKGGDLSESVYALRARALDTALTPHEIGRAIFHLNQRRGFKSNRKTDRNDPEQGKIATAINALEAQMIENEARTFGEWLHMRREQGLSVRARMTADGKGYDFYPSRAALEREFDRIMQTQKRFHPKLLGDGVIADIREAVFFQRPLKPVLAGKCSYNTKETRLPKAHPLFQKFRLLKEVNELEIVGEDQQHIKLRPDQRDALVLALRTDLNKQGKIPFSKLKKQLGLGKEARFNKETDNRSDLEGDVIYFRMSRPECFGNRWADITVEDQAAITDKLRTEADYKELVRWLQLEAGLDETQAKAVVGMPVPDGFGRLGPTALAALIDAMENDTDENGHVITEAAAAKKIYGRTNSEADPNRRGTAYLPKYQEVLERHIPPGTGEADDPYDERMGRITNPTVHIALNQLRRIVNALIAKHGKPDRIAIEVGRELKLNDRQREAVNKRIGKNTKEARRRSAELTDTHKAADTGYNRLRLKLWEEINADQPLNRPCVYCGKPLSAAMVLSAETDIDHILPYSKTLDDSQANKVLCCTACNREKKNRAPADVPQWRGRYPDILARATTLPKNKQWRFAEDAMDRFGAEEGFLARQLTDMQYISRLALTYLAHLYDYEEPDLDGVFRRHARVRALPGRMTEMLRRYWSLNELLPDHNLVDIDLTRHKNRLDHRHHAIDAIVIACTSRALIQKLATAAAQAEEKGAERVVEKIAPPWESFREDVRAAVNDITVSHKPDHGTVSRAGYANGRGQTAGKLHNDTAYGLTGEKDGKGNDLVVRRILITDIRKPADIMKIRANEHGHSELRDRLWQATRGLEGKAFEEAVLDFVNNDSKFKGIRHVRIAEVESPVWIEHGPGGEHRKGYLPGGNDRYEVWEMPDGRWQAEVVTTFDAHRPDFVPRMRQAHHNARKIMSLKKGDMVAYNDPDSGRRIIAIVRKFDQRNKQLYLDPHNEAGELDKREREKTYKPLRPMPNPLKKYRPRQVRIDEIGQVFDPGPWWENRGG

[3] = tested on: T3, OMNI-68 (Gemmiger sp. An50); conditions: PAM NNNVTA; TXTL
T3 sequence: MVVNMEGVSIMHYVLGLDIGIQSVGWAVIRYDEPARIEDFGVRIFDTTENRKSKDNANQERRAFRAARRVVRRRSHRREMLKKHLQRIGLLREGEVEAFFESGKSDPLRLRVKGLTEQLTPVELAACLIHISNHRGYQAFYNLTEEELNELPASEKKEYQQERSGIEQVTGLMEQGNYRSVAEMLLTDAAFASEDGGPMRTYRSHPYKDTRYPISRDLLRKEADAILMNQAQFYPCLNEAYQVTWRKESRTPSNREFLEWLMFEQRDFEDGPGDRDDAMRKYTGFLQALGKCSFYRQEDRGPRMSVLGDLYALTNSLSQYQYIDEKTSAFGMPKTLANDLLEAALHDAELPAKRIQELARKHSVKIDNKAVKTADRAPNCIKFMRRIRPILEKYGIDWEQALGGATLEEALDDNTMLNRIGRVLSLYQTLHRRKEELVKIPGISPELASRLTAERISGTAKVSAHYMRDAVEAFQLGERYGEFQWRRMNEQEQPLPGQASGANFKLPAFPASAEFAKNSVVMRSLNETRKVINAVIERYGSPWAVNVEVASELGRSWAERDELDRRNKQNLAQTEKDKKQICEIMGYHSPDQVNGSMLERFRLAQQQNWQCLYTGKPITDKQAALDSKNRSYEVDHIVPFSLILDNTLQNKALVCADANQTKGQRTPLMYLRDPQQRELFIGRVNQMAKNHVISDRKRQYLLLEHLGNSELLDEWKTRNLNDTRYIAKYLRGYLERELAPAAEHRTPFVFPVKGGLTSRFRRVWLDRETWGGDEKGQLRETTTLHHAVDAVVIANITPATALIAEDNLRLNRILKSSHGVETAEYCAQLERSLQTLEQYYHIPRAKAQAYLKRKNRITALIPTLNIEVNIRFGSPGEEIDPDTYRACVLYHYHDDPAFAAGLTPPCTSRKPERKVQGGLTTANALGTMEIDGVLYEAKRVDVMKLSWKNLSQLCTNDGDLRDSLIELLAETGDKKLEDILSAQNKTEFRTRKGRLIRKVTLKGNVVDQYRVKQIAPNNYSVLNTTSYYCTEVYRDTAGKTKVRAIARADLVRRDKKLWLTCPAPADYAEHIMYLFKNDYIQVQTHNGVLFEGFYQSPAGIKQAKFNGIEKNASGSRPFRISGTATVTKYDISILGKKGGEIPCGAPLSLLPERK

[4] = tested on: T4, OMNI-75 (Lactococcus sp. 1JSPR-7); conditions: PAM NNGNRA; TXTL
T4 sequence: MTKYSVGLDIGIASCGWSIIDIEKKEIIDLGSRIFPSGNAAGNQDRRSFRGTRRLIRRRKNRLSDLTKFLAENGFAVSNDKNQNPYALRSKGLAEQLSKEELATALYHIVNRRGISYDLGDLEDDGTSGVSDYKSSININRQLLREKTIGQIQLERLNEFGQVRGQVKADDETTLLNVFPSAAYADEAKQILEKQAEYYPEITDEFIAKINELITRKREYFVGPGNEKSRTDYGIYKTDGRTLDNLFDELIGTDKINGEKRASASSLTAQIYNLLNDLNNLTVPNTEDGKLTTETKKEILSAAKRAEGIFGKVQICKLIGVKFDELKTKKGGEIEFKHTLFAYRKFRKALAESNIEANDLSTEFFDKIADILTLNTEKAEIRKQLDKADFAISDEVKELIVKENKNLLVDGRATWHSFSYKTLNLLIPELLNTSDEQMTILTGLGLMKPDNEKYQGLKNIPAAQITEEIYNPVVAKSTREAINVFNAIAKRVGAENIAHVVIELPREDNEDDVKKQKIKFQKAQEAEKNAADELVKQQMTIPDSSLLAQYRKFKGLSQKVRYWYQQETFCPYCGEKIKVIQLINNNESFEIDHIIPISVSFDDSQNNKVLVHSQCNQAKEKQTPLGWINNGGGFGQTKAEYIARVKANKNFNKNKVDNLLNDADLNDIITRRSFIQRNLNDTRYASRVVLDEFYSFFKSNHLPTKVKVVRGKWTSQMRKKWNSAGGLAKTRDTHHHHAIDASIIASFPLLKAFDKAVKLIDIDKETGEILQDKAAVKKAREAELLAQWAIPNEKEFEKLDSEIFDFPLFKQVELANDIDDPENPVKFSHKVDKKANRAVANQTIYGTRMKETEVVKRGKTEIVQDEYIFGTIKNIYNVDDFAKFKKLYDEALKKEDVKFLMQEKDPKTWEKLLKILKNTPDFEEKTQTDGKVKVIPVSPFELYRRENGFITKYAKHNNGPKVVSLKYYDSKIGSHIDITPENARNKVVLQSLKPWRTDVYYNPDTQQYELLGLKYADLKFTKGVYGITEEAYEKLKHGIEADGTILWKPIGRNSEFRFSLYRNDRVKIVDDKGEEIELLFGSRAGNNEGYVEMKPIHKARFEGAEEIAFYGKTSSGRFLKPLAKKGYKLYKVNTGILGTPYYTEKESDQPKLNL

GGAAGAGCAGAGCCUUGGUCUCGCCGUGGUUUCCCUACCGAUUUGCCCAUGGUAGGGAAAGUUAUCGGCAAAUCGGUAGGGAAGCCACGGUAACAGAGCUUCACUGUGAAGGAUCAUCCUGAAGGGGAAAUUCCUUAUUGAAGCACUGAUACAGAGCUUCUGUAUUCAAACGACCCUUUCUGAGAUAUCAGAGAGGGUCGUUUUU / GGAAGAGCAGAGCCTTGGTCTCNNNNNNNN / NNNNNNNNGAGACCAAGGCTCTGCTCTTCC
activity (1-depletion score) [1]: 0.93

GGAAGAGCAGAGCCUUGGUCUCGUUGCGGUUGGCCUGCGAGAAAUCGCAGUCCAGCCGUUAACAAGCUGAGAUAUGCACCAGAUAAGGCGCUCGCUCCGGCGAGCGCUUUUUU / GGAAGAGCAGAGCCTTGGTCTCNNNNNNNN / NNNNNNNNGAGACCAAGGCTCTGCTCTTCC
activity (1-depletion score) [2]: 0.9

GGAAGAGCAGAGCCUUGGUCUCGUUUUGGUUCUCUGAUGGGAAACAUCAGAAGUUCUAAGAUAAGGCUUUACGCCGCAGGGUAUGGUGGUAUCCCGAACAAUCCACCGUUUCAGGAAUAGCGCAGCACUGGUUUCCAGUGCUGUUUUU / GGAAGAGCAGAGCCTTGGTCTCNNNNNNNN / NNNNNNNNGAGACCAAGGCTCTGCTCTTCC
activity (1-depletion score) [3]: 0.88

GGAAGAGCAGAGCCUUGGUCUCGUUUUUGUACUCUCAAGAAAUUGAGAAUCUACAAGGAUAAGGCUUUAUGCCGAAAUCAUUAACUCGCCUUUGGGCGAGUUUUUU / GGAAGAGCAGAGCCTTGGTCTCNNNNNNNN / NNNNNNNNGAGACCAAGGCTCTGCTCTTCC
activity (1-depletion score) [4]: 0.93
